Results on two molecules are retold here after patent US6407214 (CELLTECH THERAPEUTICS, dated 2002).

Where “and” joins values, the source holds several entries; their conditions need not be identical. Identical values can stand only once.

The target in assay [1] is T1, Lectin/EGF fragment from E-selectin (UniProt P16581 22-178, limits assumed).
T1 construct: domain: Lectin/EGF fragment; Soluble fragment; also called lectin/EGF fragment of E-selectin
T1 sequence (looked up): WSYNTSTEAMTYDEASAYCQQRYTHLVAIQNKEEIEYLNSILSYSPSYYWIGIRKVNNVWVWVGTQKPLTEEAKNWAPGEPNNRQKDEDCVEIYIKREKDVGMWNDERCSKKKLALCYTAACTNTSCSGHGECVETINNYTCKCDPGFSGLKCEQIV
Description: BIAcore SPR, antibody immobilised, lectin/EGF fragment in fluid phase; duplicate. How it is done: (§1) The affinity of both mouse and CDR-grafted ENA-2 for E-selectin were measured using a BIAcore TH biosensor (Pharmacia). This instrument combines miniaturised fluid delivery with an optical detection system based on surface plasmon resonance, to monitor protein interactions in real time (Chaiken et al, (1991) Anal. Biochem 201 197–210). The antibodies were immobilised at similar densities onto the sensor surface and the lectin/EGF fragment of E-selectin used as antigen in the fluid phase.
(§2) Assays of both antibodies were run at the same time using the same dilutions of antigen. The KD measurements are given below. KD Measurements

Assay [2] addresses T1, Lectin/EGF fragment from E-selectin. Description: BIAcore SPR, antibody immobilised, lectin/EGF fragment in fluid phase; average. As to the method: as §1, §2

B1: CDR-grafted ENA-2 (hENA-2 wt) (antibody, V domains shown)
VH: QVQLVQSGAEVKKPGSSVKVSCKASGYTFTDHEMHWVRQAPGQGLEWIGTIDPETGGTAYNQKFKGRATLTADKSTNTAYMDLSSLRSEDTAVYYCTVLRMDYWGQGTLVTVSS
VL: DIQMTQSPSTLSASVGDRVTITCKSSQSLLNSGNQQNYLTWYQQKPGKAPKLLIYWASTRESGVPDRFTGSGSGTDFTLTISSLQPDDFAVYYCQNDYDYPLTFGQGTKVEIKR
notes: CDR-grafted on human Eu frameworks, with a human kappa light chain (pENA204); Both gamma 1 (pENA212) and gamma 4 (pENA206) heavy chain vectors were made; The FcRI comparison uses the gamma 4 wild type; also called hEN2; gamma 4
What is called Kd is the equilibrium constant for the complex coming apart. A low value points to higher affinity. As to B1, the Kd in assay [1] was 7.8 nM and 8.17 nM; in assay [2], 7.98 nM.

B2: mouse ENA-2 (antibody, V domains shown)
VH: QVQLQQSGTELVRPGASVTLSCKASGYTFTDHEMHWVKQTPVLGLEWIGTIDPETGGTAYNQKFKGKATLTADKSSTTAYMDLRGLTSEDSAVFYCTVLRMDYWGQGTSLTVSA
VL: DIVMTQSPSSLTVTAGEKVTMRCKSSQSLLNSGNQQNYLTWYQQKPGQPPKLLIYWASTRESGVPDRFTGSGSGTDFTLTISSVQTEDLAVYYCQNDYDYPLTFGAGTKLEIKR
notes: Mouse IgG1/kappa whole antibody purified from hybridoma supernatant; The entries may include leader residues; also called mENA-2; murine ENA-2
For the molecule B2, the Kd in assay [1] was 5.38 nM and 5.48 nM; in assay [2], 5.43 nM.
